US6468532 (Genentech, dated 2002)
Changes are numbered by the printed parent chain.

B1: humanized 6G425 F(ab)-9 (humanized 6G4V11 Fab) (Fab, V domains shown)
VH: EVQLVQSGGGLVQPGGSLRLSCAASGYSFSSHYMHWVRQAPGKGLEWVGYIDPSNGETTYNQKFKGRFTLSRDNSKNTAYLQMNSLRAEDTAVYYCARGDYRYNGDWFFDVWGQGTLVTVSS
VL: DIQMTQSPSSLSASVGDRVTITCRSSQSLVHGIGNTYLHWYQQKPGKAPKLLIYKVSNRFSGVPSRFSGSGSGTDFTLTISSLQPEDFATYYCSQSTHVPLTFGQGTKVEIKR
B2: 6G4V11N35A Fab (Fab, V domains shown)
VH: B1 VH
VL: B1 VL with N35A
B3: full length 6G4V11N35A IgG1 (antibody, V domains shown, not shown: a dimerising Fc or GST)
VH: B1 VH
VL: B1 VL with N35A
B4: humanized 6G425 F(ab)-8 (Fab, V domains shown)
VH: B1 VH with Q6E, R38K
VL: B1 VL
B5: 6G4V11N35A F(ab')2 (GCN4 leucine zipper construct) (other)
light: DIQMTQSPSSLSASVGDRVTITCRSSQSLVHGIGATYLHWYQQKPGKAPKLLIYKVSNRFSGVPSRFSGSGSGTDFTLTISSLQPEDFATYYCSQSTHVPLTFGQGTKVEIKRTVAAPSVFIFPPSDEQLKSGTASVVCLLNNFYPREAKVQWKVDNALQSGNSQESVTEQDSKDSTYSLSSTLTLSKADYEKHKVYACEVTHQGLSSPVTKSFNRGEC
heavy: not shown
B6: 6G4V11N35A Fab' modified with 40 kD linear PEG-maleimide (Fab, V domains shown)
VH: B1 VH
VL: B1 VL with N35A
modifications: 40 kD linear methoxy-PEG-maleimide on the free cysteine in the hinge region

What was measured:
Test in all cases: cell-based or functional assay
rhesus IL-8 = biological target: T1, rhesus IL-8 (rhesus, UniProt P67813 23-101, limits assumed)
T1 sequence (looked up): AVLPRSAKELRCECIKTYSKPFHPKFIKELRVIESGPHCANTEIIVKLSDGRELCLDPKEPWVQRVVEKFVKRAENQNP

human monomeric IL-8 = human monomeric IL-8 (human)
[1] = biological target: T2, recombinant human IL-8, (ser-IL-8)72 (human, UniProt P10145 28-99)
T2 sequence (looked up): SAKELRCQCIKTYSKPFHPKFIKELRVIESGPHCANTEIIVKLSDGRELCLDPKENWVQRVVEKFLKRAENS

rabbit IL-8 = biological target: T3, rabbit IL-8 (rabbit, UniProt P19874 23-101, limits assumed)
T3 sequence (looked up): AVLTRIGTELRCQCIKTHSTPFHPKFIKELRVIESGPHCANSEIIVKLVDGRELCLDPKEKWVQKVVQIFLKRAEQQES

Row | Binder | IC50, IL-8 mediated neutrophil chemotaxis (rhesus IL-8) [nM] | IC50, IL-8 mediated PMN chemotaxis [1] [nM] | average IC50, human IL-8 mediated neutrophil chemotaxis [1] [nM] | average IC50, IL-8 mediated neutrophil chemotaxis (rabbit IL-8) [nM] | average IC50, IL-8 mediated neutrophil chemotaxis (human monomeric IL-8) [nM] | also measured
1 | B1 | ~22 | – | – | – | – | IC50, IL-8 mediated neutrophil chemotaxis (human monomeric IL-8): ~15 nM
2 | B2 | – | 0.8 | 2.7 | 5 | 1 | –
3 | B3 | – | – | – | – | – | IC50, IL-8 mediated human neutrophil chemotaxis [1]: 4 nM; IC50, IL-8 mediated human neutrophil chemotaxis (rabbit IL-8): 4 nM
4 | B4 | 10 | – | – | – | – | IC50, IL-8 mediated neutrophil chemotaxis [1]: 12 nM
5 | B5 | – | – | 1.5 | 4 | 1 | –
6 | B6 | – | 3.7 | – | – | – | –
